Laboratory results: patent US20140161821A1, “TREATMENT WITH ANTI-PCSK9 ANTIBODIES” (PFIZER INC., priority 2011, published 2014)

Assays:
[1] = Example 2 clinical study, single escalating IV doses: pharmacokinetics (NCA); assay type: in vivo, human
Experimental: The subjects, investigator, and site personnel (except site personnel responsible for drug preparation) were blinded to treatment assignments, as was the CRO designee; while the Sponsor clinical research team was unblinded. The study was conducted in 6 planned cohorts of 8 subjects per cohort in an effort to seek a maximum tolerated dose or MTD (total of approximately 48 subjects). […] Doses were administered following an overnight fast as an intravenous infusion over 60 minutes. […] Infusions will be administered as a single infusion over 60 minutes. […]
Drug was prepared by qualified unblinded site personnel and dispensed in a blinded fashion to the patient and immediate study staff.
In addition, single PK samples were obtained on Days 4, 7, 14, 21, 28 and additional PK follow-up visit (if applicable). One sample was drawn at each time point.

[2] = Example 3 clinical study: safety and adverse events; assay type: in vivo, human
Experimental: (§1) In the study, the incidence of subjects meeting toxicity or intolerable dose criteria was measured. Incidence of treatment emergent adverse events (TEAEs) categorized by severity and causal relationship to study drug was also be measured. The timeframe for measurement of each of the above outcomes was two months.

[3] = Example 3 clinical study, single IV dose on stable atorvastatin: L1L3 pharmacokinetics; conditions: geometric mean
Experimental: Infusion rates were carefully controlled by an infusion device per protocol. Atorvastatin (40 mg daily) was administered as described below in the study protocol. Subjects self-administered atorvastatin during their participation in this study except from Days 1 through 7 during their confinement to the clinic where the same dose was administered by qualified site personnel.
The subjects returned to the clinical research unit for subsequent visits.
as §1
Dose Administration: subjects took sponsor-provided atorvastatin (40 mg). […] Subjects fasted at least 10 hours prior to the lipid panel blood sample on Days 5 and 6.

PCSK9 [4] = molecular target: T1, PCSK9 (Rattus norvegicus, UniProt P59996); test: Dose-response of serum cholesterol and triglycerides in Sprague-Dawley rats, single IP dose; assay type: in vivo
T1 construct: endogenous in cells; host or cells: live Sprague-Dawley rats (in vivo, serum PCSK9)
Excerpt: The duration of the cholesterol repression was also dose dependent, ranging from 1 to 21 days.

PCSK9 [5] = molecular target: T2, PCSK9 (Homo sapiens, UniProt Q8NBP7); test: Example 6 clinical study, IV doses every 4 weeks on stable statin: lipids; assay type: in vivo; conditions: for LDL-C lowering, % below baseline: by Day 29 (FIG. 15)
T2 construct: PCSK9 antagonist antibody that antagonizes circulating PCSK9; endogenous in cells; host or cells: human subjects in clinical trials (in vivo, circulating PCSK9)
Experimental: This study was a randomized, multi center, double blind, placebo control, parallel designed trial with a 3 week screening period, 12 week treatment period and 8 week follow up period.
Subjects enrolled in the study met all of the following criteria: men and women subjects greater than equal to age of 18; body mass index of 18.5 to 40 kg/m^2; total body weight greater than 50 kg (110 lbs) and less than 150 kg (330 lbs); on a stable daily dose of a statin, defined as atorvastatin 40 or 80 mg, rosuvastatin 20 or 40 mg or simvastatin 40 or 80 mg for a minimum of 45 days prior to Day 1; lipids meet the following criteria at two qualifying visits (screening and Day −7): fasting LDL-C greater than or equal to 100 mg/dL, ;
The pre-specified primary efficacy endpoint was the percentage change from baseline of LDL-C at Day 85 analyzed using an ANCOVA model. The final ANCOVA model contained terms for baseline LDL-C and treatment. To preserve the overall type I error rate at a level of 0.05 for the primary endpoint analysis, a Haybittle-Peto, boundary with 0.001 alpha spent was employed.
The LDL-C data were subsequently analyzed using mixed model repeated measures to estimate both the treatment by time and empirical dose-response profiles.

[6] = single IV 0.5 or 4 mg/kg + atorvastatin 40 mg daily
[7] = IV every 4 weeks, stable daily statin

T2 sequence (Q8NBP7 153-692): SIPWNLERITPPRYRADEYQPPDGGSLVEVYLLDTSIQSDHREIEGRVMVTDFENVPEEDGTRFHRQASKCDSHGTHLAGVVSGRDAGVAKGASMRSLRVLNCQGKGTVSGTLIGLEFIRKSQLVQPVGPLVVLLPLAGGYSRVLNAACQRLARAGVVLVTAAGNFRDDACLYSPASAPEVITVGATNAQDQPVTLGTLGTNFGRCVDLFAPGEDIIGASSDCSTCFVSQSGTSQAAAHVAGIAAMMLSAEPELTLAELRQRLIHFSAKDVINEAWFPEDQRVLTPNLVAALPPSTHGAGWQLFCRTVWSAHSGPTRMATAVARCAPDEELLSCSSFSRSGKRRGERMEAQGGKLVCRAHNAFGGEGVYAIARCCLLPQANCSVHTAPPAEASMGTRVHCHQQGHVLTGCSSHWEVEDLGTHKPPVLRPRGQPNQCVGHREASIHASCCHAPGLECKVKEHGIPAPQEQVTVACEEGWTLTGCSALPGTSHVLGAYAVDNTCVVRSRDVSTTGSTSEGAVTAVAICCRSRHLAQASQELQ
T2 sequence (Q8NBP7 31-152 partner limits assumed): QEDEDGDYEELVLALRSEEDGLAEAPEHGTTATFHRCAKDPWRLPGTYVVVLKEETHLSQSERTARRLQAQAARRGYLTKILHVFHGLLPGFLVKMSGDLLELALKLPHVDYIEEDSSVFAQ
T1 sequence (P59996 152-691): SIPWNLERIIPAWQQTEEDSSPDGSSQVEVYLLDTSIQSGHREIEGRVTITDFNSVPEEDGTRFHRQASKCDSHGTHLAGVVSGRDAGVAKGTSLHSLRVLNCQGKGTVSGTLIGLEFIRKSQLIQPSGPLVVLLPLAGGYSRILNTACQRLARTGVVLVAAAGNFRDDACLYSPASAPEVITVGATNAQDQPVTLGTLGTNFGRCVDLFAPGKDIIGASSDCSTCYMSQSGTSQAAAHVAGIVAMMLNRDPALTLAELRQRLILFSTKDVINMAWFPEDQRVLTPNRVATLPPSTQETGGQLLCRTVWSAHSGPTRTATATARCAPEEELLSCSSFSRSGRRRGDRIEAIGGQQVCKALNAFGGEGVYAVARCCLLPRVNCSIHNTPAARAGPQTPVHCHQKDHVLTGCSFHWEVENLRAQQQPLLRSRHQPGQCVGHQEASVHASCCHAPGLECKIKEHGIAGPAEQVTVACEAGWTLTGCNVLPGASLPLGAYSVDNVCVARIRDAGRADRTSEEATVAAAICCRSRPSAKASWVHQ

B1: L1L3: humanized (<5% murine residues) monoclonal PCSK9 antagonist antibody that binds to secreted PCSK9; VH SEQ ID NO: 11, VL SEQ ID NO: 12 (antibody, V domains shown)
VH: QVQLVQSGAEVKKPGASVKVSCKASGYTFTSYYMHWVRQAPGQGLEWMGEISPFGGRTNYNEKFKSRVTMTRDTSTSTVYMELSSLRSEDTAVYYCARERPLYASDLWGQGTTVTVSS
VL: DIQMTQSPSSLSASVGDRVTITCRASQGISSALAWYQQKPGKAPKLLIYSASYRYTGVPSRFSGSGSGTDFTFTISSLQPEDIATYYCQQRYSLWRTFGQGTKLEIK
modifications: heavy chain variable region; light chain variable region
AUC(0-∞) ([1]; single IV 0.3 mg/kg, mean): 34997.88 ng·days/mL | Cl ([1]; single IV 0.3 mg/kg, mean): 8.70 mL/day/kg | Cmax ([1]; single IV 0.3 mg/kg, mean): 10.31967 µg/mL | Half-life ([1]; single IV 0.3 mg/kg, mean): 65.8 h | Vss ([1]; single IV 0.3 mg/kg, mean): 0.03177 L/kg | AUC(0-∞) ([1]; single IV 0.3 mg/kg, median): 33748.15 ng·days/mL | Cl ([1]; single IV 0.3 mg/kg, median): 8.92 mL/day/kg | Cmax ([1]; single IV 0.3 mg/kg, median): 10.5375 µg/mL | Half-life ([1]; single IV 0.3 mg/kg, median): 65 h | Vss ([1]; single IV 0.3 mg/kg, median): 0.03074 L/kg | AUC(0-∞) ([1]; single IV 1 mg/kg, mean): 156399.94 ng·days/mL | Cl ([1]; single IV 1 mg/kg, mean): 6.58 mL/day/kg | Cmax ([1]; single IV 1 mg/kg, mean): 29.25183 µg/mL | Half-life ([1]; single IV 1 mg/kg, mean): 115 h | Vss ([1]; single IV 1 mg/kg, mean): 0.04159 L/kg | AUC(0-∞) ([1]; single IV 1 mg/kg, median): 166736.58 ng·days/mL | Cl ([1]; single IV 1 mg/kg, median): 6.00 mL/day/kg | Cmax ([1]; single IV 1 mg/kg, median): 28.2315 µg/mL | Half-life ([1]; single IV 1 mg/kg, median): 114 h | Vss ([1]; single IV 1 mg/kg, median): 0.04234 L/kg | AUC(0-∞) ([1]; single IV 3 mg/kg, mean): 709485.10 ng·days/mL | Cl ([1]; single IV 3 mg/kg, mean): 4.54 mL/day/kg | Cmax ([1]; single IV 3 mg/kg, mean): 96.7115 µg/mL | Half-life ([1]; single IV 3 mg/kg, mean): 210 h | Vss ([1]; single IV 3 mg/kg, mean): 0.04906 L/kg | AUC(0-∞) ([1]; single IV 3 mg/kg, median): 728278.54 ng·days/mL | Cl ([1]; single IV 3 mg/kg, median): 4.12 mL/day/kg | Cmax ([1]; single IV 3 mg/kg, median): 100.6205 µg/mL | Half-life ([1]; single IV 3 mg/kg, median): 194 h | Vss ([1]; single IV 3 mg/kg, median): 0.04894 L/kg | AUC(0-∞) ([1]; single IV 6 mg/kg, mean): 1446945.71 ng·days/mL | Cl ([1]; single IV 6 mg/kg, mean): 4.33 mL/day/kg | Cmax ([1]; single IV 6 mg/kg, mean): 175.85433 µg/mL | Half-life ([1]; single IV 6 mg/kg, mean): 201 h | Vss ([1]; single IV 6 mg/kg, mean): 0.06045 L/kg | AUC(0-∞) ([1]; single IV 6 mg/kg, median): 1289916.44 ng·days/mL | Cl ([1]; single IV 6 mg/kg, median): 4.65 mL/day/kg | Cmax ([1]; single IV 6 mg/kg, median): 177.485 µg/mL | Half-life ([1]; single IV 6 mg/kg, median): 186 h | Vss ([1]; single IV 6 mg/kg, median): 0.06133 L/kg | AUC(0-∞) ([1]; single IV 12 mg/kg, mean): 3768691.17 ng·days/mL | Cl ([1]; single IV 12 mg/kg, mean): 3.28 mL/day/kg | Cmax ([1]; single IV 12 mg/kg, mean): 353.96017 µg/mL | Half-life ([1]; single IV 12 mg/kg, mean): 492.7 h | Vss ([1]; single IV 12 mg/kg, mean): 0.07225 L/kg | AUC(0-∞) ([1]; single IV 12 mg/kg, median): 3599992.39 ng·days/mL | Cl ([1]; single IV 12 mg/kg, median): 3.36 mL/day/kg | Cmax ([1]; single IV 12 mg/kg, median): 357.671 µg/mL | Half-life ([1]; single IV 12 mg/kg, median): 293.8 h | Vss ([1]; single IV 12 mg/kg, median): 0.05752 L/kg | AUC(0-∞) ([1]; single IV 18 mg/kg, mean): 4812012.99 ng·days/mL | Cl ([1]; single IV 18 mg/kg, mean): 3.85 mL/day/kg | Cmax ([1]; single IV 18 mg/kg, mean): 532.44917 µg/mL | Half-life ([1]; single IV 18 mg/kg, mean): 311.3 h | Vss ([1]; single IV 18 mg/kg, mean): 0.06546 L/kg | AUC(0-∞) ([1]; single IV 18 mg/kg, median): 4857618.28 ng·days/mL | Cl ([1]; single IV 18 mg/kg, median): 3.71 mL/day/kg | Cmax ([1]; single IV 18 mg/kg, median): 560.4635 µg/mL | Half-life ([1]; single IV 18 mg/kg, median): 282.2 h | Vss ([1]; single IV 18 mg/kg, median): 0.06083 L/kg | Discontinued subjects [2, 6]: no discontinued subjects | Intensity of TEAEs [2, 6]: none were severe in intensity | Serious adverse events (SAE) [2, 6]: one serious adverse event (SAE), i.e. worsening of migraine headache, which was not drug-related | Alanine aminotransferase (ALT) and/or aspartate aminotransferase (AST) elevation (TEAEs) ([2]; transient, without clinical signs/symptoms, all resolved within one week): greater than 3 ×ULN | AUCinf ([3]; 0.5 mg/kg L1L3 + atorvastatin): 46338 ng·days/mL | AUCt ([3]; 0.5 mg/kg L1L3 + atorvastatin): 38310 ng·days/mL | CL ([3]; 0.5 mg/kg L1L3 + atorvastatin): 10.8 mL/day/kg | Cmax ([3]; 0.5 mg/kg L1L3 + atorvastatin): 13.827 µg/mL | Vss ([3]; 0.5 mg/kg L1L3 + atorvastatin): 0.0402 L/kg | AUCinf ([3]; 4 mg/kg L1L3 + atorvastatin): 777167 ng·days/mL | AUCt ([3]; 4 mg/kg L1L3 + atorvastatin): 726337 ng·days/mL | CL ([3]; 4 mg/kg L1L3 + atorvastatin): 5.2 mL/day/kg | Cmax ([3]; 4 mg/kg L1L3 + atorvastatin): 105.048 µg/mL | Vss ([3]; 4 mg/kg L1L3 + atorvastatin): 0.0523 L/kg | Non-fasting serum triglyceride levels, maximum increase (PCSK9 [4]; single IP 80 mg/kg): approximately three | Serum cholesterol reduction, maximum effect (PCSK9 [4]; single IP 10 and 80 mg/kg, 48 hours post dosing): 50% | LDL-C lowering (PCSK9 [5]; 3 mg/kg and 6 mg/kg dosing regimens, persisted for 28 days (FIG. 16)): greater than 30% | LDL-C lowering, % below baseline (PCSK9 [5]; 3 mg/kg dosing regimen, stable daily statin): about 50% | LDL-C lowering, % below baseline (PCSK9 [5]; 6 mg/kg dosing regimen, stable daily statin): about 65% | Effect on triglycerides (PCSK9 [5]; [7]): No effect | Elevation of HDL (PCSK9 [5]; [7]): up to 9% | Difference in LS means (Test-Reference) of percentage changes from baseline for LDL-C (PCSK9 [5]; L1L3 0.25 mg/kg vs. Placebo on Day 85, MMRM): 2.67 | Difference in LS means (Test-Reference) of percentage changes from baseline for LDL-C (PCSK9 [5]; L1L3 1 mg/kg vs. Placebo on Day 85, MMRM): 0.83 | Difference in LS means (Test-Reference) of percentage changes from baseline for LDL-C (PCSK9 [5]; L1L3 3 mg/kg vs. Placebo on Day 85, MMRM): −38.92 | Difference in LS means (Test-Reference) of percentage changes from baseline for LDL-C (PCSK9 [5]; L1L3 6 mg/kg vs. Placebo on Day 85, MMRM): −50.14
